These results are taken from patent publication US11116816B2, “Therapeutic vitamin d conjugates” (Extend Biosciences, Inc., priority 2014, dated 2021).

For data set [1] the following is noted: in vivo; cited from earlier work.
The conditions of data set [2]: Bertrand et al. 2015; cited from earlier work.
Data set [3] can be described thus: Pharmacokinetics of apelin and apelin conjugates, intravenous. It is filed as in vivo, Sprague-Dawley rats. The conditions noted are these: for pharmacokinetic properties compared to unmodified apelin: ELISA (FIG. 5); for bioavailability improvement: AUC versus native apelin-13, 0.1 mg/kg intravenous. How it is done:
FIG. 5: Pharmacokinetics of apelin and apelin conjugates. Apelin alone or conjugated to the Vitamin D-(25)-PEG2k-maleimide carrier, or the Vitamin D-(3)-PEG2k-aldehyde carrier were injected intravenously into Sprague-Dawley rats at 0.1 mg/kg. Plasma samples were analyzed for apelin concentration by ELISA in duplicate and the average value from three animals were plotted on the semi-log graph.
Plasma samples were taken at 5 min, and 0.5, 1, 2, 4, 8 and 24 hr and analyzed for the presence of apelin by quantitative ELISA (Phoenix Pharmaceuticals, Burlingame, Calif., Cat. No. EK-057-23). […] Unmodified apelin decayed to near-background levels within 5 minutes of injection.
The decay rates of the carrier-conjugates are complex and probably represent a combination of slower renal clearance and protection from protease degradation. A pharmacokinetic analysis of the data was then performed using WinNonLin (PharSight) and GraphPad (Prism).
A general note: ELISA stands for enzyme-linked immunosorbent assay.

The conditions of data set [4]: natural state; WO03/011213, Kharitonenkov et al. 2005; cited from earlier work.
The target in data set [5] is T1, human FGF21 receptor (FGFR1), recruitment of co-receptor β-Klotho (Homo sapiens, UniProt P11362+Q86Z14).
T1 construct: host or cells: U2OS (PathHunter)
T1 sequence (P11362 22-822): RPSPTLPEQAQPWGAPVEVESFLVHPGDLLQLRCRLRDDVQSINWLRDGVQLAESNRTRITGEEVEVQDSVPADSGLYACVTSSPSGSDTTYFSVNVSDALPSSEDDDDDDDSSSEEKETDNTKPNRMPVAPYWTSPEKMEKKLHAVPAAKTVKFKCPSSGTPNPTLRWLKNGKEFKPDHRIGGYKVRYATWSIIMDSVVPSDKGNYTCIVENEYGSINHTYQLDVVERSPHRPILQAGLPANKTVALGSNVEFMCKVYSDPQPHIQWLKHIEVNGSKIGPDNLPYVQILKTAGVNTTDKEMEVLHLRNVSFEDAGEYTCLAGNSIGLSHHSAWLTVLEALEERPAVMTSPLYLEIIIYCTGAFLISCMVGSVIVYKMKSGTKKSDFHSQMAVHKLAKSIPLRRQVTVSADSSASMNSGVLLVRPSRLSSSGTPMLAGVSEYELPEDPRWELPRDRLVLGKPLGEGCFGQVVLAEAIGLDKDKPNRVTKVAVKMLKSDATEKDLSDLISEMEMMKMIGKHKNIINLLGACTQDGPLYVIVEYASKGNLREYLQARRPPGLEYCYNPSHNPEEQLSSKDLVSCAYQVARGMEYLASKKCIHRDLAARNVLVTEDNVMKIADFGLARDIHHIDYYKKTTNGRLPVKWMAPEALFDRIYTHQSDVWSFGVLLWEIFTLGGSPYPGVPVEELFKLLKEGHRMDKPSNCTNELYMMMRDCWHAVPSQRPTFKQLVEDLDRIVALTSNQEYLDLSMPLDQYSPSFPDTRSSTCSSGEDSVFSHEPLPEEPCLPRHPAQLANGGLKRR
T1 sequence (Q86Z14 52-1044 limits assumed): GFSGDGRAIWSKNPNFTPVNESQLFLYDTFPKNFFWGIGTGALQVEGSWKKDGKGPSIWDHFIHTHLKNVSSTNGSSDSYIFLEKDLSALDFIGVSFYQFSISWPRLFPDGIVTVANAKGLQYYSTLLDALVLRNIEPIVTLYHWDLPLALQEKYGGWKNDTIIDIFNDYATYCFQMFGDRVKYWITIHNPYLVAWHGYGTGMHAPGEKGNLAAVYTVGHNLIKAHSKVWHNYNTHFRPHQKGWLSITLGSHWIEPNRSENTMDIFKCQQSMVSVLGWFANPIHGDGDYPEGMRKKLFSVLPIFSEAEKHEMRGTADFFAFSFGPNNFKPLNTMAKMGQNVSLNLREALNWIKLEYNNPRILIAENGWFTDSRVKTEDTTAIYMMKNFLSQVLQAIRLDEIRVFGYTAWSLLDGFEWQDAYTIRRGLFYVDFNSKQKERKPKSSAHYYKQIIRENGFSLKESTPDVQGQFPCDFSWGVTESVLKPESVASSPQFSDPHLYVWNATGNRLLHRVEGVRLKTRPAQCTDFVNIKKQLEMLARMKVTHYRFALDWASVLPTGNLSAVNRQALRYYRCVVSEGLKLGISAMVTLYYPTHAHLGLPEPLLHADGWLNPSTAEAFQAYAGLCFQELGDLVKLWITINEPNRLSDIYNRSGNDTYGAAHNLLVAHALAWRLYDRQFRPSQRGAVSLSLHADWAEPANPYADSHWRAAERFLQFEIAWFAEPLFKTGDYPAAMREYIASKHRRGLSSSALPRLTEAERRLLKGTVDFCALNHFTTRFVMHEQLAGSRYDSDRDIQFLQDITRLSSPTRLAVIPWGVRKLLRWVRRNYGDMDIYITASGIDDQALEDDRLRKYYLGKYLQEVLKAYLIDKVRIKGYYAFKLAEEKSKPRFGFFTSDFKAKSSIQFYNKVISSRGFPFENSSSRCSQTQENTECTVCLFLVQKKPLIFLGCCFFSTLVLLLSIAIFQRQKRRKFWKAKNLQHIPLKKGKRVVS
Description: PathHunter U2OS FGFR1-β-Klotho Functional Assay. It is filed as cell-based. The conditions noted are these: PathHunter U2OS cells expressing FGFR1, β-Klotho recruitment, chemiluminescence. From the text:
In some embodiments, the activity of the FG21, when conjugated to a carrier, was substantially the same as unmodified protein. […] PathHunter® cells stably express human FGF21 receptor (FGFR1). They were monitored for recruitment of the co-receptor, β-Klotho, following exposure to the test compounds using the PathHunter® Detection reagent cocktail on a PerkinElmer Envision instrument with chemiluminescent signal detection. […] Thus, the FGF21 conjugates retained about the same receptor activity as the unmodified FGF21 protein or better.

Data set [6] is described as follows: Pharmacokinetics of FGF21 conjugates, subcutaneous. It is filed as in vivo, Sprague Dawley rats. The conditions noted are these: 0.1 mg/kg sc; for Cmax: plasma, human FGF21 ELISA. How it is done:
The pharmacokinetics of FGF21 conjugates in Sprague Dawley rats were determined. Unmodified FGF21, VitD-(25)-PEG2K-FGF21 and VitD-(3)-PEG2K-FGF21 were compared. […] The samples were analyzed using commercial ELISA kits for human FGF21 (Millipore Cat. No. EZHFGF21-19K). […] Improvements in the mean residence time (MRT) and terminal rate constant (Lz) values were also observed.

The mark [7] stands for this setting: 0.1 mg/kg intravenous, plasma, ELISA.

Where two headings read alike, the source gives them in different places. Primed or numbered codes have the meaning given here. No end group written: not given here.

What is called AUC is concentration integrated over time. Usually EC50 stands for the concentration needed to bring the measured effect to its halfway point. A higher EC50 goes with lower potency in that assay. As a reminder, the MRT is a mean duration of stay, worked out from the concentration-time curve. Broadly, the Tmax is the time at which the peak concentration occurs. In general, t½ refers to the time in which the quantity being followed falls by half. Higher therefore signals slow decline. What is called Cmax is the highest concentration seen after dosing.

Regarding “PTH: Parathyroid hormone, polypeptide containing 84 amino acids secreted by the parathyroid glands”, in data set [1], the half-life result is listed as “approximately 4 minutes”.
As for `CSCC[C@H](NC(=O)[C@@H]1CCCN1C(=O)CNC(=O)[C@H](CCCCN)NC(=O)[C@H](Cc1cnc[nH]1)NC(=O)[C@H](CO)NC(=O)[C@H](CC(C)C)NC(=O)[C@H](CCCNC(=N)N)NC(=O)[C@@H]1CCCN1C(=O)[C@H](CCCNC(=N)N)NC(=O)[C@@H](N)CCC(N)=O)C(=O)N1CCC[C@H]1C(=O)N[C@@H](Cc1ccccc1)C(=O)O` [apelin-13, reference compound], in data set [2], the in vivo half-life is ≤ 0.333 h. Besides, in data set [3] (setting [7]), the “time to decay to near-background levels after injection” value was ≤ 5 min. Moreover, in data set [3] (Sprague-Dawley, rat, 0.1 mg/kg intravenous, plasma, ELISA, read-out: AUC), the AUC came to 0.0004 µg·h/mL.
For “VitD-(3)-PEG2K-apelin: Apelin-13 conjugated at N-terminal amine to Vitamin D-(3)-PEG2K-aldehyde carrier ({VitD‑(3)-PEG2K}-QRPRLSHKGPMPF)”, the AUC in data set [3] (setting [7]) amounted to 0.328 µg·h/mL. Besides, the “pharmacokinetic properties compared to unmodified apelin” value in data set [3] (0.1 mg/kg intravenous, plasma) is reported as “significantly improved pharmacokinetic properties”. The bioavailability improvement in data set [3] was 820 fold.
For “VitD-(25)-PEG2K-C-apelin: C-apelin (SEQ ID NO:16, N-terminal cysteine) conjugated to VitD-(25)-PEG2K-maleimide carrier (CQRPRLSHKGPMPF; VitD-(25)-PEG2K-maleimide carrier conjugate)” the same measures were 0.085 µg·h/mL, “improved pharmacokinetic properties” and 213 fold.

B1: FGF21 in its natural state: Fibroblast Growth Factor 21, protein that circulates in serum, natural state (protein, UniProt Q9NSA1 29-209, looked up)
Fibroblast growth factor 21: HPIPDSSPLLQFGGQVRQRYLYTDDAQQTEAHLEIREDGTVGGAADQSPESLLQLKALKPGVIQILGVKTSRFLCQRPDGALYGSLHFDPEACSFRELLLEDGYNVYQSEAHGLPLHLPGNKSPHRDPAPRGPARFLPLPGLPPALPEPPGILAPQPPDVGSSDPLSMVGPSQGRSPSYAS
On to B1, for which the half-life in serum result in data set [4] was “about 1.1 hours”.

B2: FGF21: Modified FGF21 expressed in E. coli, I3C substitution and His6 tag, SEQ ID NO:22, not conjugated (protein)
chain: MHHHHHHHPCPDSSPLLQFGGQVRQRYLYTDDAQQTEAHLEIREDGTVGGAADQSPESLLQLKALKPGVIQILGVKTSRFLCQRPDGALYGSLHFDPEACSFRELLLEDGYNVYQSEAHGLPLHLPGNKSPHRDPAPRGPARFLPLPGLPPALPEPPGILAPQPPDVGSSDPLSMVGPSQGRSPSYAS
modifications: His6 tag
As to B2, the EC50 in data set [5] came out at 0.16 mg/L. In addition, in data set [6], the AUCtot is recorded as 228 h(ng/ml), the “Lz (terminal rate constant)” value was “.534 h⁻¹”, the MRT is 2.8 h and the Tmax was 2 h. In data set [6], the t½ was 1.3 h and the Cmax came to 0.059 µg/mL.

B3: VitD-(25)-PEG2K-FGF21: Modified FGF21 (SEQ ID NO:22) conjugated via free cysteine to VitD-(25)-PEG2K-maleimide (conjugate)
chain: B2 chain
modifications: VitD-PEG2K-maleimide conjugated at free cysteine
In the case of B3, in data set [5], the EC50 was 0.13 mg/L. In data set [6], the AUCtot was 1640 h(ng/ml), the “Lz (terminal rate constant)” value was “.131 h⁻¹”, the MRT amounted to 7.9 h and the Tmax worked out at 2 h. In data set [6], the “half-life (t1/2)” value turned out to be 5.3 h, the “half-life improvement compared to unmodified FGF21” value is 4.1 fold, the “improvement in AUC values versus unmodified FGF21” value turned out to be 7.2 fold and the t½ is reported as 5.3 h. The molecule further gave a Cmax in data set [6] of 0.115 µg/mL.

B4: VitD-(3)-PEG2K-FGF21: Modified FGF21 (SEQ ID NO:22) conjugated via free cysteine to VitD-(3)-PEG2K-maleimide (conjugate)
chain: B2 chain
modifications: VitD-PEG2K-maleimide conjugated at free cysteine
Molecule B4 registered a half-maximal effective concentration (EC50) in data set [5] of 0.40 mg/L. In data set [6], the AUCtot is recorded as 2727 h(ng/ml), the “Lz (terminal rate constant)” value is “.0604 h⁻¹”, the MRT was found to be 18.9 h and the Tmax is given as 4 h. Further, in data set [6], the “half-life (t1/2)” value amounted to 11.5 h, the “half-life improvement compared to unmodified FGF21” value is 8.8 fold, the “improvement in AUC values versus unmodified FGF21” value is recorded as 12.0 fold and the t½ turned out to be 11.5 h. In data set [6], this molecule yielded a Cmax of 0.118 µg/mL.
